Measured values as given in article PMC9896449 (Nature Communications, 2023).

Assays:
[1] = target: ShAb01 (shark VNAR - human IgG1 Fc chimera) (nurse shark (Ginglymostoma cirratum)); experiment: BLI; conditions: both partners purified
[2] = target: ShAb02 (shark VNAR - human IgG1 Fc chimera) (nurse shark (Ginglymostoma cirratum)); experiment: BLI; conditions: both partners purified

B1: SARS-CoV-1 RBD (domain or fragment)
chain: not shown
Question: Does B1 bind [1]?
Answer: Result: binds

Question: Does B1 bind [2]?
Answer: Result: no binding
